The values that follow are results of earlier work, collected in doi:10.1101/2022.06.23.497301.

The target in this data set is Asp96 (UniProt position 109, PLLLLDLALLV). The conditions noted are these: resting (ground, closed) state of bacteriorhodopsin.

For “Bacteriorhodopsin (Halobacterium salinarum)”, the pKa result is “∼12.0”.
